The numbers were not newly measured in publication PMC12287344, which cites them from elsewhere.

The target in the data set is caspase-1 (Homo sapiens) (UniProt P29466).

Regarding caspase-1 (from UniProt P29466), the Kd (usually the equilibrium constant for the complex coming apart) is 110 µM.
